{"source": "paper PMC10171809", "molecular_target": "HEXIM1 (UniProt O94992)", "experiment": "co-immunoprecipitation", "settings": "reference: wild type; sites S43", "data": [{"substance": "METTL3 (from UniProt Q86U44) S43A", "values": [{"measurement": "binding against the reference", "result": "stronger"}]}]}
